Assay results: US20170022292A1 (Novartis, published 2017)
Blank lines part the entries; values can stand above or below the binder they belong to.

Experiments:
[1] = target: T1, human FXI activated (human Factor XIa, full length) (human, UniProt P03951 19-387; P03951 388-625); experiment: solution equilibrium titration (SET), MSD ECL read-out, 1:2 fit, n=3; apparent KD (avidity possible)
T1 construct: also called huFXIa; full length human FXIa

[2] = target: T2, human FXI zymogen (human, UniProt P03951 19-625); experiment: as above
T2 construct: In the TGA the target is the FXI present in pooled human plasma; also called huFXI; hFXI
T2 sequence (P03951 19-625 C226S limits assumed): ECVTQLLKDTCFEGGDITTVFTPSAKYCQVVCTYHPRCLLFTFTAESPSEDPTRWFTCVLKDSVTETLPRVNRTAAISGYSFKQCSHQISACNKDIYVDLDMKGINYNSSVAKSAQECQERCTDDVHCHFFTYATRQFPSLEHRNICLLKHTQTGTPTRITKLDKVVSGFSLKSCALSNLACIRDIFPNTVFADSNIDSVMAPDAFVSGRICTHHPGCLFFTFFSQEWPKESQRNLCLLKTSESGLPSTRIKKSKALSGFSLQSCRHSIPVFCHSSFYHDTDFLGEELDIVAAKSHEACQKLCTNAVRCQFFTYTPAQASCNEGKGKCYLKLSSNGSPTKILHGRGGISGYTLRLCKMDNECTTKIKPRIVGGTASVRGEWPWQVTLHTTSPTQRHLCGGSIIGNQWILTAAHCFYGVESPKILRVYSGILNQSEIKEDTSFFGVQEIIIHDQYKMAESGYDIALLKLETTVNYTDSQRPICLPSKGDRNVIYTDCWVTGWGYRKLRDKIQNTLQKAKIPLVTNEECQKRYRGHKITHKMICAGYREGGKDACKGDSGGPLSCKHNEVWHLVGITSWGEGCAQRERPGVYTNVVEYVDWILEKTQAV

[3] = target: T3, human FXI catalytic domain (residues 388-625, Swissprot P03951) (human, UniProt P03951 388-625); experiment: SPR (BIACORE T200), IgG captured by goat anti-human IgG-Fc, FXI catalytic domain 0-200 nM as analyte, 25 C, 1:1 model, n=2
T3 construct: it is treated here as the same molecule; also called FXI CD; FXIa CD
T3 sequence (P03951 388-625 limits assumed, form in doubt, one chain of several): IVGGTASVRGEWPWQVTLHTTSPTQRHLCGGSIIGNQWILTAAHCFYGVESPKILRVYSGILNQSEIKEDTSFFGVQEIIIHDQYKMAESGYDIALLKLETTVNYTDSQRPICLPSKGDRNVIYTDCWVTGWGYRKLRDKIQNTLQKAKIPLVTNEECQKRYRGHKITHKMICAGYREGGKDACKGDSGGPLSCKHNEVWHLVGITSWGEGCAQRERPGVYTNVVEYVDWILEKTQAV

[4] = target: T4, cynomolgus monkey FXI zymogen (cynomolgus monkey, UniProt A0A2K5VVW4 19-624); experiment: solution equilibrium titration (SET); apparent KD, N=2; cynomolgus monkey FXI zymogen; apparent KD, SET, N=2
T4 construct: also called free FXI (FXIf) in cynomolgus plasma
T4 sequence (A0A2K5VVW4 entry or part of it): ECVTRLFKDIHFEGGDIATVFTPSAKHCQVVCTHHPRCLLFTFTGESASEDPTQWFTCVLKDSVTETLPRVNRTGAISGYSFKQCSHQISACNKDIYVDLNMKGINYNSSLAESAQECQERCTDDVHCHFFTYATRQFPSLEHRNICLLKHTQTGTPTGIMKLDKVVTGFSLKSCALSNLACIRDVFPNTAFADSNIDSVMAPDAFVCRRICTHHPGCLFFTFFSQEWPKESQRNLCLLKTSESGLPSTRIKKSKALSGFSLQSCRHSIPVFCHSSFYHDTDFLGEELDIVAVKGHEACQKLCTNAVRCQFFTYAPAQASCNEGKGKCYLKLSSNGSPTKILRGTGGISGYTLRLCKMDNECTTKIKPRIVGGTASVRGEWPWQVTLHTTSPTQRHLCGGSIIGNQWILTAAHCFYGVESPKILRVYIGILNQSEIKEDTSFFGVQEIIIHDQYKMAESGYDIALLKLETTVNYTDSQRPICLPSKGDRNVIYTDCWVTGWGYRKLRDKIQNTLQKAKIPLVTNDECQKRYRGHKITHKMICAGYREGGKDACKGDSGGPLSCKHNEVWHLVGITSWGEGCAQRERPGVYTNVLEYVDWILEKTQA

[5] = target: T1, human FXI activated (human Factor XIa, …); experiment: cell-based or functional assay
[6] = target: T2, human FXI zymogen; experiment: cell-based or functional assay
[7] = target: T5, activated cynomolgus monkey FXI (cynomolgus monkey, UniProt A0A2K5VVW4 19-387; A0A2K5VVW4 388-625); experiment: solution equilibrium titration (SET); apparent KD, N=2; activated cynomolgus monkey FXI; apparent KD, SET, N=2
T5 construct: also called cynomolgus monkey FXIa; cynomolgus monkey FXI (active form)
T5 sequence (chain, as listed by the source, form in doubt, chain 1 of 2): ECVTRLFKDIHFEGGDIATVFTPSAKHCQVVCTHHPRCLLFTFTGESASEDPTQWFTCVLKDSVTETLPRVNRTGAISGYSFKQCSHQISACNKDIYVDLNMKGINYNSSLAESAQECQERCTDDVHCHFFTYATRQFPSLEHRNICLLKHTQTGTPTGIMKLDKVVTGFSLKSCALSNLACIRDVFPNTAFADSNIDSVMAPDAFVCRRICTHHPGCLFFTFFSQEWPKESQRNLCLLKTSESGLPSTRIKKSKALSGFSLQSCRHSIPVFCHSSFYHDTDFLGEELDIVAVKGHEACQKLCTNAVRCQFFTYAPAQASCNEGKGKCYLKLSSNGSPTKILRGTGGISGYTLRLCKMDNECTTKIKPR
T5 sequence (chain, as listed by the source, form in doubt, chain 2 of 2): as the sequence (P03951 388-625 limits assumed, form in doubt, one chain of several) above, with S59I, E156D, V225L, V238A counted along it

[8] = target: T3, human FXI catalytic domain (residues …); experiment: SPR (BIACORE T200), Fab amine-coupled on CM5 chip, FXI catalytic domain 0-200 nM as analyte, 25 C, 1:1 model, n=3
[9] = target: T2, human FXI zymogen; experiment: SET
[10] = target: T1, human FXI activated (human Factor XIa, …); experiment: solution equilibrium titration (SET), MSD ECL read-out, 1:1 fit, n=3
[11] = target: T2, human FXI zymogen; experiment: as above
[12] = target: T1, human FXI activated (human Factor XIa, …); experiment: SET KD compared with SPR KD for the FXI catalytic domain
[13] = target: T2, human FXI zymogen; experiment: as above

T1 sequence (P03951 19-387 C226S limits assumed, form in doubt, chain 1 of 2): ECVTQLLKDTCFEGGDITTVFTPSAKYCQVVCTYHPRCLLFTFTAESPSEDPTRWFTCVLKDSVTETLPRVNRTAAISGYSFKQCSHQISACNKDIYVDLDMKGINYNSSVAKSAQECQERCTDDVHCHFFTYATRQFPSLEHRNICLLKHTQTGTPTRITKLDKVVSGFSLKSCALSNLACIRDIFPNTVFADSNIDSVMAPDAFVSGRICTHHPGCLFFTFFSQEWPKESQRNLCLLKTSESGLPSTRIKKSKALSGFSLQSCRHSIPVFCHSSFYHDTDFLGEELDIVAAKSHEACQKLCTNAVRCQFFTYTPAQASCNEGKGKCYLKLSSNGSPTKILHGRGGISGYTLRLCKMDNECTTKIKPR
T1 sequence (P03951 388-625 limits assumed, form in doubt, chain 2 of 2): as the sequence (P03951 388-625 limits assumed, form in doubt, one chain of several) above

- Kd [1]: 0.0047 nM
- Kd [2]: 0.0013 nM
- Kd [3]: 21 nM
- koff [3]: 0.00088 s⁻¹
- kon [3]: 42000 M⁻¹ s⁻¹
- Kd [4]: 0.005 nM
- IC50, inhibition of the enzymatic activity of full length human FXIa (cleavage of the fluorescent peptide D-Leu-Pro-Arg*Rh110-D-Pro) [5]: ~0.16 nM
- IC50, inhibition of thrombin generation in the TGA with pooled human plasma [6]: 24 nM
- Kd [7]: 0.0125 nM
B1: NOV1401 (human IgG1/lambda antibody with D265A and P329A in the Fc) (antibody, V domains shown)
VH: QVQLLESGGGLVQPGGSLRLSCAASGFTFSTAAMSWVRQAPGKGLEWVSGISGSGSSTYYADSVKGRFTISRDNSKNTLYLQMNSLRAEDTAVYYCARELSYLYSGYYFDYWGQGTLVTVSS
VL: QSVLTQPPSASGTPGQRVTISCSGSSSNIGSNDVSWYQQLPGTAPKLLIYKNYNRPSGVPDRFSGSKSGTSASLAISGLQSEDEADYYCSAWDQRQFDVVFGGGTKLTVLG
notes: also called NOV1401-IgG; NOV1401-Antibody

- Kd [8]: 19 nM
- koff [8]: 0.00061 s⁻¹
- kon [8]: 32000 M⁻¹ s⁻¹
- fold higher affinity than to the activated FXI [9]: 5 fold
- Kd [10]: 0.305 nM
- Kd [11]: 0.062 nM
- fold higher affinity than to the catalytic domain [12]: 66 fold
- fold higher affinity than to the catalytic domain [13]: 300 fold
B2: NOV1401-Fab (Fab, V domains shown)
VH: B1 VH
VL: B1 VL
notes: also called Fab of the NOV1401 antibody; Fab portion of NOV1401
